The text below walks through data of US20160340659A1, “ACTIN BINDING PEPTIDES AND COMPOSITIONS COMPRISING SAME FOR INHIBITING ANGIOGENESIS AND TREATING MEDICAL CONDITIONS ASSOCIATED WITH SAME” (YISSUM RESEARCH AND DEVELOPMENT COMPANY OF THE HEBREW …, priority 2014, published 2016).

Experiment [1] concerns the target T1, G-Actin from rabbit muscle (Oryctolagus cuniculus, UniProt P68135).
T1 construct: G-Actin from rabbit muscle; purchased Sigma-Aldrich, St Louis, Mo; host or cells: rabbit muscle (tissue-derived)
The experiment is described as follows: ELISA actin binding assay (solid-phase, immobilized actin). The conditions noted are these: immobilized G-actin 500 ng/well. Here is the method:
Peptides corresponding to a variety of amino acid sequences in the region of human RNASET2 comprising helix 5 and helix 6 were synthesized and assayed for actin binding in an ELISA actin binding assay.
Solid-phase ELISA for RNASET2 peptide binding to immobilized actin was performed as modified from Mejean 1987 (Biochem. J. 244: 571-577) and Mejean 1992 (Eur. J Biochem. 209: 555-562). All steps were conducted at 37° C. Immuno-96 Microwell™ solid plates (Thermo Fisher Scientific, MA) coated with 500 ng/well of G-Actin from rabbit muscle (Sigma-Aldrich, St Louis, Mo.) in 100 ul of 0.05 M carbonate buffer, pH 9.5 (Sigma-Aldrich, Mo), incubated for 1 h and washed with 250 ul/well Tris Buffered Saline (TBS) (Sigma-Aldrich). The wells were blocked with 3% bovine serum albumin (BSA, Sigma-Aldrich) in 200 ul/well TBS for another 1 hour and washed with 250 ul/well TBS. The candidate peptides are then added at various concentrations (for example, serial dilutions giving 500, 250 or 125 ng/well) in 100 ul/well Tris Buffered Saline (TBS), incubated for 1 hour and washed 3 times with 250 ul/well TBS containing 0.05% Tween®20 (TBST, Sigma-Aldrich). Anti-T2 RNase (rabbit anti-rhtrRNASET2, Anilab, Israel, whole serum or antiserum) was then added, incubated for 1 hour and the plates washed 3 times with 250 ul/well TBST. Labeled second antibody [peroxidase-conjugated affinity pure goat-anti rabbit IgG (Jackson, Pa.)] was added at a dilution of 1:10:000 in 100 ul/well TBS, incubated for 1 hour and the plates washed twice with 250 ul/well TBST. After an additional wash with 250 ul/well TBS, 1-Step Ultra TMB-ELISA (TMB-3,3′,5,5′ Tetramethylbenzidine) (Thermo-Scientific) was added (100 ul/well) and after 15-25 min of incubation, the reaction was read at A650 using Infinite F50-TECAN ELISA READER (TECAN, Austria). Each assay was performed in triplicates.
(In general: In an ELISA, binding on a coated surface is turned into a signal by an enzyme label.)

In the next experiment the target is T2, Rabbit muscle actin (Oryctolagus cuniculus, UniProt P68135).
T2 construct: Rabbit muscle actin (A2522, Sigma-Aldrich, St Louis, Mo.); purchased Sigma-Aldrich, St Louis, Mo; A2522; host or cells: rabbit muscle (tissue-derived)
Briefly: Peptide array screen for actin binding. The conditions noted are these: peptides on cellulose membrane; 5 μM actin; densitometry relative to K108-K133. Here is the method: The peptides were acetylated at their N-termini and attached to a cellulose membrane via their C-termini through an amide bond. Peptide array (INTAVIS Bioanalytical Instruments AG, Koeln, Germany).
The array was immersed in 5 ml blocking solution (TBST containing 2.5% milk) for 4 hours with shaking, then washed once with blocking solution (30 sec.) and twice with TBST (5 min. each). 5 μM actin were dissolved in the blocking solution (˜1:3), and incubated with the array at 4° C. with shaking overnight. After washing with TBST (1×30 sec. and 2×5 min.) the array was incubated first with rabbit anti actin antibody diluted 1:100 in blocking solution for 4 hours at room temperature followed by washings three times with TBST (1×30 sec. and 2×5 min.). The array was then incubated with horseradish peroxidase-conjugated goat anti rabbit IgG antibody diluted 1:10,000 in blocking solution at room temperature for 2 hours followed by washing with TBST (1×30 sec. and 2×5 min.). Immunodetection was performed using chemiluminiscence with ECL reagents.
The modifications included an alanine scan, truncations and systematic replacements of each residue in each peptide by the corresponding D-amino acid residue and N-methylated residue, C terminal truncations and N terminal truncations. The array was screened for binding the actin protein.

Experiment [2] concerns chick Chorio-Allantoic Membrane (CAM). Briefly: Ex ovo CAM angiogenesis assay. The format is in vivo, chicken. The note with it: 3 μg on paper disk daily for four days from day 8; compared to PBS control. As for the experimental part: In this assay, in-vivo angiogenesis is assessed on live chick embryos grown in petri dishes. Fertilized eggs are cracked into a petri dish after a few (e.g. 3) days incubation at appropriate temperature (e.g. 37° C.) and humidity. In the following days, the embryos developed a vascular network, which can then easily be exposed to any treatment or combination of treatments, for example, via delivery onto absorbent disks placed on/about the developing vascular regions. Angiogenesis is scored by periodically (e.g. 1×/day, 2×/day, 1×/2 days, 1×/4 days, etc) counting the number of blood vessels around the disk.
Fertilized chicken eggs were incubated horizontally at 37° C. and humidity of 60-62% and cracked into Petri dishes at embryonic day 4. Incubation was continued under the same conditions. […] Treatment was given every day for four days, then, the number of blood vessels around the treated disks was counted.

For a further experiment, the target named is actin (Oryctolagus cuniculus, UniProt P68135). The experiment is described as follows: Surface plasmon resonance (BIAcore) of actin binding. The conditions noted are these: actin on CM5 chip, 25° C. Here is the method:
SPR was performed on a BIAcore 3000 instrument (BIAcore, Uppsala, Sweden). Actin was diluted in 100 mM CH3COONa pH 4.6 to a final concentration of 20 μg/ml (200 μl total) resulting in ˜1 ng immobilized actin on a CM5 BIAcore sensor chip (GE Healthcare Bio-Sciences AB) using the standard BIAcore amine coupling chemistry protocol. The CM5 chip allows four separate flow cells to be operated in the BIAcore 3000 instrument used in these experiments. Coupling is achieved by activating the surface of the sensor chips with equal volumes of 50 mM N-hydroxysuccimide (NHS)/200 mM Nethyl-N-(3-[…])-carboiimide (EDC) (BIAcore, AB, Uppsala, Sweden) to form activated carboxyl groups. An actin solution […] was run over the chip for 5 min at a rate of 10 μl/min, allowing the amine groups on the protein to react with the activated esters. In the final stage of immobilization, the surface was blocked by 1M ethanol amine, pH 8.0. The binding assay was performed by injecting the hRNASET2, trT2-49, trT2-49m or peptides solutions in running buffer (HBS—10 mM Hepes, 150 mM Sodium Chloride, 3 mM EDTA, 0.005% Polysorbate 20) at 5 different concentrations at a flow rate of 10 μl/min at 25° C. Injections were performed simultaneously over all four channels and blank surface (a plain dextran matrix, channel 1) was used as control. The net signal was obtained by subtracting the blank signal from the signal of the immobilized surface. The association phase for protein or peptides binding to actin was followed for 4 min, and dissociation phases were monitored for 3 min. Surface regeneration between consecutive binding cycles included a 1 min injection of 1 mM NaOH. The response was monitored as a function of time (sensorgram) at 25° C. Multi-concentration data were globally fit using BIA evaluation 3.2 software.
The strength of a two molecule interaction is characterized by the equilibrium dissociation (binding) constant KD=[P][L]/[PL], where [P] is the concentration of free protein (or peptide), [L] the concentration of ligand and [PL] the concentration of the complex. […]
On the technique in general: Surface plasmon resonance follows binding to a sensor surface in real time, without labels.

For the next experiment, the system named is HUVEC. Briefly: HUVEC tube formation assay on Matrigel. The format is cell-based, human. The note with it: angiogenin or VEGF induced; 2 μM peptide. As for the experimental part:
FIGS. 6A-6D illustrate in-vitro inhibition of angiogenesis in the HUVEC model by T2 peptides. HUVEC cells plated on Matrigel™ were exposed to 2 μM of T2 peptides A103-Q159 (SEQ ID NO: 60), K108-K133 (SEQ ID NO: 57) or K108-L123 (SEQ ID NO: 67), in addition to 1 μg/ml of angiogenin or VEGF as the angiogenic agent, as indicated. Control wells received PBS. FIG. 6B-Results were assessed by imaging software, and quantified, and expressed relative to tube formation with angiogenin or VEGF alone (100%) Column 1=angiogenin, column 2=angiogenin+SEQ ID NO: 60, column 3=angiogenin+SEQ ID NO: 57, column 4=angiogenin+[…], Column 5=VEGF, column 6=VEGF+SEQ ID NO: 60, column 7=VEGF+SEQ ID NO: 57, column 8=VEGF+[…]. FIGS. 6C and 6D illustrate the inhibitory effect of truncated human T2 polypeptide trT2-49m (SEQ ID NO: 129) on angiogenin and VEGF induced HUVEC tube formation. Note the significant inhibition of HUVEC tube formation by all of the T2 peptides assayed, and in particular, K108-K133 (SEQ ID NO: 57);
HUVEC (CC-2519)(fresh or commercially provided) are maintained in M199 rrrediurn supplemented with 20% FCS, 1% glutamine, 1% antibiotic-antimycotic solution, ECGF, and heparin, plated in a 96-well plate (14×10^3 cells/well) previously coated with growth factor-depleted Matrigel™ (BD Biosciences), in M199 medium containing 5% FCS and 0.005% ECGF. The wells are supplemented with candidate T2 RNase peptides or PBS, and angiogenic growth factors (1 μg/ml angiogenin, bFGF or VEGF) to a final volume of 120 pl. Plates are incubated (overnight), photographed and the extent of tube formation (angiogenesis) assessed.

“SEQ ID NO: 63: peptide representing amino acids 103-141 of RNASET2 (ALNSQKKYFGRSLELYRELDLNSVLLKLGIKPSINYYQV)”: in experiment [1], the “actin binding on ELISA” value is listed as “moderate”.

For KKYFGRSLELYR [SEQ ID NO: 62], the “actin binding of immobilized peptides” value with Rabbit muscle actin is given as “significant actin binding”.

Turning to “SEQ ID NO: 1: mature full length human RNASET2, T2 family ribonuclease”, in experiment [2], the “inhibition of angiogenesis (number of blood vessels around disk)” value is on record as “effective in inhibiting angiogenesis”. The “Ka × 10^3” value in the experiment with actin is given as 1.44 ×10^3 1/Ms.

On to LYREL [SEQ ID NO: 132], for which, in the experiment with Rabbit muscle actin, the “actin binding of immobilized peptides” value was “significant actin binding”.

Regarding “SEQ ID NO: 67: peptide K108-L123 of human RNASET2, 16 aa”, in the experiment with HUVEC, the “inhibition of HUVEC tube formation” value is recorded as “unable to inhibit tube formation”.

On to KKYFGRSLEL [SEQ ID NO: 131], for which the “actin binding of immobilized peptides” value with Rabbit muscle actin is on record as “significant actin binding”.
